Patent US20260234242A1 (HAINAN SIMCERE ZAIMING PHARMACEUTICAL, published 2026)
Positions count from the first letter of the chain named. Like-named read-outs stand apart in the source and are kept apart here. One block for each binder: values may come before it.

Key:
[1] = molecular target: T1, his-tagged human CDH6 extracellular region protein (hCDH6 ECD-his) (human, UniProt P55285 19-615); experiment: ELISA, coated antigen
T1 construct: also called Human CDH6-his; hCDH6-his; not shown: his tag
T1 sequence: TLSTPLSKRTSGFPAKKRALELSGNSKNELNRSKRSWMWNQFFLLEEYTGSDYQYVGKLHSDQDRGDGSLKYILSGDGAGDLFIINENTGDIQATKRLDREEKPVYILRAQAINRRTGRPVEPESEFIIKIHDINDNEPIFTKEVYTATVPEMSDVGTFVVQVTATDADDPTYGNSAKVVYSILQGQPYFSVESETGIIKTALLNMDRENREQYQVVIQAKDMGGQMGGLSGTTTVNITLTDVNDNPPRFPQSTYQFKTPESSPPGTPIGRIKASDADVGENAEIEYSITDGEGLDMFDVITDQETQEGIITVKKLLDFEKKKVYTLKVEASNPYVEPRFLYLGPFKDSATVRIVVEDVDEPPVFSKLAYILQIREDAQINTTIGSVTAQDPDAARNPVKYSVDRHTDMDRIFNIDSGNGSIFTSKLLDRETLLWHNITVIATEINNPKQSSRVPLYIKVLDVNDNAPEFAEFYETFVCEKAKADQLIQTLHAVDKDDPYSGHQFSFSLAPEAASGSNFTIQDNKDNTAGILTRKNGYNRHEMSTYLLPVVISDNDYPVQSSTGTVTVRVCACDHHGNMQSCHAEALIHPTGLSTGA
Experimental: (§1) Human CDH6 protein (hCDH6 ECD-his, conventionally synthesized), monkey CDH6 protein (cynoCDH6 ECD-his, conventionally synthesized; the cynoCDH6 ECD sequence was derived from Uniprot #A0A2K5TW62 (19-615)), and murine CDH6 protein (mCDH6 ECD-his, conventionally synthesized; the mCDH6 ECD sequence was derived from Uniprot #P97326 (19-615)) were diluted with PBS to a final concentration of 1 μg/mL, and added to a 96-well ELISA plate at 100 μL/well. The plate was incubated at 4° C. overnight. The next day, the plate was washed 3 times with a plate washing solution (PBS+0.01% (v/v) Tween 20), and a blocking buffer (PBS+0.01% (v/v) Tween 20+2% (w/w) BSA) was added for blocking at room temperature for 2 h. The blocking buffer was discarded, and the plate was washed 3 times. The chimeric antibodies were diluted with 1% BSA+PBS (purchased from Cytiva, Cat. No. SH30264.01) and added to the 96-well plate at 50 μL/well. After incubation at 37° C. for 2 h, the plate was washed 3 times with a plate washing solution. […] The plate was incubated at 37° C. for 1 h and then washed 5 times with a plate washing solution. A TMB substrate (purchased from Seracare, Cat. No. 5120-0077) was added at 50 μL/well and incubated at room temperature for 10 min, then a stop solution (1.0 N HCl) was added at 50 μL/well. OD450 nm values were read using a microplate reader (Biotek). Analysis was performed by the GraphPad Prism software, data were fitted, and EC50 values were calculated. The chimeric antibodies tested all had strong binding to the human CDH6 protein, the monkey CDH6 protein, and the murine CDH6 protein.
(§2) According to the above sequences, heavy chain (HC) and light chain (LC) plasmids were constructed (the nucleic acid sequences encoding the VH and VL of the antibodies were recombined into an expression vector carrying a signal peptide (SEQ ID NO: 132, […]) and a heavy chain constant region/light chain constant region sequence to obtain recombinant plasmids expressing VH-CH1-Fc/VL-CL).

[2] = molecular target: T2, human CDH6 on tumor cells (OVCAR3 cells, PA-1 cells) (human, UniProt P55285 54-790); experiment: FACS, OVCAR3 cells
T2 sequence: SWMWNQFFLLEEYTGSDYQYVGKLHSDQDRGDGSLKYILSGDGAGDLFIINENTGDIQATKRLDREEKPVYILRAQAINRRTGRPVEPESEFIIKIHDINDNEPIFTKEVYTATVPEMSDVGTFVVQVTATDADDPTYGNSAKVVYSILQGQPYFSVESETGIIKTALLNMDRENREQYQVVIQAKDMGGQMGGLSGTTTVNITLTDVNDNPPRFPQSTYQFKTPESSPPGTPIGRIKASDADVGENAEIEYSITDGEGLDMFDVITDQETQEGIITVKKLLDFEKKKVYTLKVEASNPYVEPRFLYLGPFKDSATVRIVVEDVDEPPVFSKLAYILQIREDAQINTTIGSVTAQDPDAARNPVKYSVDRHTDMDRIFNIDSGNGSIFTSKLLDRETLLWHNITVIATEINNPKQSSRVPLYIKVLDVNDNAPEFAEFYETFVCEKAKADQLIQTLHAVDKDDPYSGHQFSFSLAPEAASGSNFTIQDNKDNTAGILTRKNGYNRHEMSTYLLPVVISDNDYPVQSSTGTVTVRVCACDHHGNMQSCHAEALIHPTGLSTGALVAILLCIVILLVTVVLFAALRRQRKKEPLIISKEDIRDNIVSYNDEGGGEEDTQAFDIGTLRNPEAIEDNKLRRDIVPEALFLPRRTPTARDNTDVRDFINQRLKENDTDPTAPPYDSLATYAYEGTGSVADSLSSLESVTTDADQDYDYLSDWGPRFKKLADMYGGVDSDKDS
Experimental: (§3) OVCAR3 cells with high expression of CDH6 and PA-1 cells with moderate expression of CDH6 were used to detect the binding activity of the antibodies to the cells. […] The cells were washed once with PBS, counted, resuspended to 2×10⁶ cells/mL in an FACS buffer (PBS+2% FBS), and then added to a 96-well plate at 50 μL/well. The chimeric antibodies were diluted with FACS buffer (PBS+2% FBS) and added to the 96-well plate at 50 μL/well, and the plate was incubated at 4° C. for 1 h. […] The dilution was added to the 96-well plate at 50 μL/well, and the plate was incubated at 4° C. for 1 h. After the plates were centrifuged and washed 2 times with PBS, the cells were resuspended in an FACS buffer. The mean fluorescence intensity (MFI) was measured using FACS Canton II (BD). Analysis was performed by the GraphPad Prism software, data were fitted, and EC50 values were calculated. The chimeric antibodies tested had strong binding to both OVCAR3 cells and PA-1 cells.
as §2, with “VH-CH1-Fc/VL-CL). According to the expression and purification methods in Example 2, the hCDH6-1 humanized antibodies were obtained, and the binding activity of the humanized antibodies was detected by ELISA and FACS (see 2.2 and 2.3 for the method).” for “VH-CH1-Fc/VL-CL).”

[3] = molecular target: T2, human CDH6 on tumor cells (OVCAR3 …); experiment: FACS, OVCAR3 cells; remark: listed apart in the source
Experimental: as §3
as §2, with “VH—CH1-Fc/VL-CL). According to the expression and purification methods in Example 2, the hCDH6-6 humanized antibodies were obtained, and the binding activity of the humanized antibodies was detected by ELISA and FACS (see 2.2 and 2.3 for the method).” for “VH-CH1-Fc/VL-CL).”

[4] = molecular target: T1, his-tagged human CDH6 extracellular …; experiment: ELISA, coated antigen; remark: listed apart in the source
Experimental: as §1
as §2, with “VH—CH1-Fc/VL-CL).” for “VH-CH1-Fc/VL-CL).”

B1: hCDH6-1-H2L1 (antibody, V domains shown)
VH: EVQLVQSGAEVKKPGSSVKVSCKASGYTFTNYWMHWVRQAPGQGLEWMGDIDPSHSETHYTQKFKDRVTITVDKSTSTAYMELSSLRSEDTAVYYCARGDLGRFDYWGQGTTVTVSS
VL: DIVMTQSPDSLAVSLGERATINCRASESVSIHGTHLMHWYQQKPGQPPKLLIYAASNLESGVPDRFSGSGSETDFTLTISSLQAEDVAVYYCQQSFEDPWTFGGGTKVEIK
notes: Humanized
EC50 [1]: 0.046 nM
Max OD450 [1]: 2.65 OD450
EC50 [2]: 0.228 nM
Max MFI [2]: 14500 MFI

B2: hCDH6-1-H2L2 (antibody, V domains shown)
VH: B1 VH
VL: B1 VL with P44S
notes: Humanized
EC50 [1]: 0.026 nM
Max OD450 [1]: 2.63 OD450
EC50 [2]: 0.147 nM
Max MFI [2]: 14300 MFI

B3: hCDH6-1-H3L1 (antibody, V domains shown)
VH: B1 VH with I70L
VL: B1 VL
notes: Humanized
EC50 [1]: 0.026 nM
Max OD450 [1]: 2.6 OD450
EC50 [2]: 0.154 nM
Max MFI [2]: 14600 MFI

B5: hCDH6-6-H1L5 (antibody, V domains shown)
VH: EVQLVQSGAEVKKPGASVKVSCKASGYTFTDYYMAWVRQAPGQGLEWMGYIFPNSGGTDYSQKFKGRVTMTVDKSTSTVYMELSSLRSEDTAVYYCARELGADYGDYYAMDHWGQGTTVTVSS
VL: DIVMTQSPLSLPVTPGEPASISCRASENIDSYLAWYLQKPGKSPQLLVYSATLLADGVPDRFSGSGSGTDFTLKISRVEAEDVGVYYCQHYYRTPPTFGQGTKLEIK
notes: Humanized
EC50 [3]: 0.61 nM
Max MFI [3]: 14200 MFI
EC50 [4]: 0.031 nM
Max OD450 [4]: 2.06 OD450

B7: hCDH6-6-H3L2 (antibody, V domains shown)
VH: B5 VH with G42R
VL: DIQMTQSPSSLSASVGDRVTITCRASENIDSYLAWYQQKPGKSPKLLVYSATLLADGVPSRFSGSGSGTDYTLTISSLQPEDFATYYCQHYYRTPPTFGQGTKLEIK
notes: Humanized
EC50 [3]: 0.85 nM
Max MFI [3]: 14600 MFI
EC50 [4]: 0.03 nM
Max OD450 [4]: 2.09 OD450

B8: hCDH6-6-H3L3 (antibody, V domains shown)
VH: B5 VH with G42R
VL: B7 VL with K45Q
notes: Humanized
EC50 [3]: 0.74 nM
Max MFI [3]: 14300 MFI
EC50 [4]: 0.031 nM
Max OD450 [4]: 2 OD450

B9: hCDH6-6-H3L1 (antibody, V domains shown)
VH: B5 VH with G42R
VL: B7 VL with V48L
notes: Humanized
EC50 [3]: 0.87 nM
Max MFI [3]: 13700 MFI
EC50 [4]: 0.05 nM
Max OD450 [4]: 2.02 OD450

Other lines, results leading:

EC50 [3]: 0.63 nM
Max MFI [3]: 13800 MFI
EC50 [4]: 0.031 nM
Max OD450 [4]: 1.99 OD450
B4: hCDH6-6-H1L3 (antibody, V domains shown)
VH: B5 VH
VL: B7 VL with K45Q
notes: Humanized

EC50 [3]: 0.62 nM
Max MFI [3]: 14300 MFI
EC50 [4]: 0.029 nM
Max OD450 [4]: 2.14 OD450
B6: hCDH6-6-H2L4 (antibody, V domains shown)
VH: B5 VH with M70L
VL: B7 VL with T85R
notes: Humanized

EC50 [3]: 0.64 nM
Max MFI [3]: 14600 MFI
EC50 [4]: 0.026 nM
Max OD450 [4]: 2.1 OD450
B10: hCDH6-6-H2L5 (antibody, V domains shown)
VH: B5 VH with M70L
VL: B5 VL
notes: Humanized

EC50 [3]: 0.7 nM
Max MFI [3]: 14500 MFI
EC50 [4]: 0.041 nM
Max OD450 [4]: 2.05 OD450
B11: hCDH6-6-H3L4 (antibody, V domains shown)
VH: B5 VH with G42R
VL: B7 VL with T85R
notes: Humanized

EC50 [3]: 0.69 nM
Max MFI [3]: 14200 MFI
EC50 [4]: 0.043 nM
Max OD450 [4]: 1.97 OD450
B12: hCDH6-6-H3L5 (antibody, V domains shown)
VH: B5 VH with G42R
VL: B5 VL
notes: Humanized

EC50 [3]: 0.57 nM
Max MFI [3]: 14100 MFI
EC50 [4]: 0.025 nM
Max OD450 [4]: 2.09 OD450
B13: hCDH6-6-H2L3 (antibody, V domains shown)
VH: B5 VH with M70L
VL: B7 VL with K45Q
notes: Humanized

EC50 [3]: 0.64 nM
Max MFI [3]: 14400 MFI
EC50 [4]: 0.021 nM
Max OD450 [4]: 2.16 OD450
B14: hCDH6-6-H1L4 (antibody, V domains shown)
VH: B5 VH
VL: B7 VL with T85R
notes: Humanized; also called hCDH6-6-HIL4
